Tests used:
[1] = Blood brain barrier crossing: subcutaneous pump infusion, content in blood, bone and brain parts by ELISA; type: in vivo, mouse; conditions: Osteocalcin−/− mice, subcutaneous pumps 50 ng/hour, seven days
Experimental: Osteocalcin−/−, Gprc6a−/−, Osteocalcin-mCherry, and Osteocalcin foxed mice have been previously described (Ducy et al., 1996, Nature 382:448-452; Oury et al., 2011, Cell 144:796-809). Mouse genotypes were determined by PCR. For all experiments, controls were littermate female WT, Cre-expressing, or flox/flox. All mice were maintained on a pure 129-Sv genetic background except for the inducible deletion Osteocalcin model (mix background: 25% C57/BL6 and 75% 129sv). For inducible gene deletion mice, tamoxifen was prepared in corn oil and injected intraperitoneally (IP) (1 mg/20g of body weight) over one week. For osteocalcin delivery to pregnant mice, IP injections (240 ng/day) were performed as soon as a plug was present daily until delivery (E0.5-E18.5). For osteocalcin or leptin infusion in adult Osteocalcin−/− or ob/ob mice, pumps (Alzet micro-osmotic pump, Model 1002) delivering osteocalcin (300 ng/hr), leptin (50 ng/hr), or vehicle were surgically installed subcutaneously in the backs of 3-month old mice. For the postnatal rescue of cognitive functions in Osteocalcin−/− mice, osteocalcin (10 ng/hour) or vehicle were delivered intrasubventricularly (icv) as previously described (Ducy et al., 2000, Cell 100:197-207). Leptin and osteocalcin content in sera and tissues were determined by ELISA.
To understand how this behavioral phenotype develops, whether osteocalcin crosses the blood brain barrier (BBB) was tested by installing pumps that subcutaneously delivered vehicle or uncarboxylated osteocalcin (50 ng/hour) in three-month-old Osteocalcin−/− mice. The positive control for this experiment was subcutaneous infusion of leptin (50 ng/hour) in 3 month-old ob/ob mice, since leptin is known to cross the BBB (Banks et al., 1996, Peptides 17:305-311). Seven days later, osteocalcin and leptin content were measured in blood, bone, and in various parts of the brain in Osteocalcin−/− and ob/ob mice, respectively.

WT 2-month old mice = test: ICV delivery in WT adult mice, D/LT and EPMT; type: in vivo, mouse; conditions: ICV 3 or 10 ng/hour, one month
Experimental: Each mouse was allowed to explore the apparatus for 5 min. Global activity was assessed by measuring the number of entries […] (David et al, 2009, Neuron 62:479-493). Anxiety was assessed by comparing the time spent in the open arms.
The test was performed in a quiet, darkened room. Mice were individually housed in cages containing a handful of bedding from their home cage and acclimated to the room at least 1 h before the test. Naive mice were placed individually in the testing chamber in the dark compartment. The test was 5 min in duration, and time spent and number of entries in light compartments were recorded a highly trained observer, blind to the genotype of the mice.
To determine if osteocalcin is sufficient to improve cognitive function in adult mice, WT 2-month old mice were implanted with ICV pumps delivering vehicle (PBS), or 3, 10, or 30 ng/hr recombinant uncarboxylated full-length mouse osteocalcin for a period of one month. After one month of infusion, animals were subjected to behavioral testing.

## osteocalcin: Recombinant osteocalcin bacterially produced, cleaved from the GST subunit; completely undercarboxylated at all three sites; full-length mouse osteocalcin (YLGASVPSPDPLEPTREQCELNPACDELSDQYGLKTAYKRIYGITI)
[1]
  osteocalcin accumulation in parts of the brain: accumulated in Osteocalcin−/− mice in the brainstem, thalamus, and hypothalamus
  osteocalcin concentration in brainstem, thalamus, and hypothalamus relative to that observed in serum: ~50%
WT 2-month old mice
  anxiety-like behavior (D/LT and EPMT): decrease in anxiety-like behavior
  exploration of the lit compartment and open arms (D/LT, EPM): increase in the exploration of the lit compartment and open arms

Reference: patent US20200069775A1, “BRAIN OSTEOCALCIN RECEPTOR AND COGNITIVE DISORDERS” (The Trustees of Columbia University in the City of New York, priority 2017, published 2020)
